Measurements reported in IntAct's records for PubMed 24165795.

B1: Phosphatidylinositol 4,5-bisphosphate 3-kinase catalytic subunit delta isoform (Homo sapiens), O00329 (parent)
chain: MPPGVDCPMEFWTKEENQSVVVDFLLPTGVYLNFPVSRNANLSTIKQLLWHRAQYEPLFHMLSGPEAYVFTCINQTAEQQELEDEQRRLCDVQPFLPVLRLVAREGDRVKKLINSQISLLIGKGLHEFDSLCDPEVNDFRAKMCQFCEEAAARRQQLGWEAWLQYSFPLQLEPSAQTWGPGTLRLPNRALLVNVKFEGSEESFTFQVSTKDVPLALMACALRKKATVFRQPLVEQPEDYTLQVNGRHEYLYGSYPLCQFQYICSCLHSGLTPHLTMVHSSSILAMRDEQSNPAPQVQKPRAKPPPIPAKKPSSVSLWSLEQPFRIELIQGSKVNADERMKLVVQAGLFHGNEMLCKTVSSSEVSVCSEPVWKQRLEFDINICDLPRMARLCFALYAVIEKAKKARSTKKKSKKADCPIAWANLMLFDYKDQLKTGERCLYMWPSVPDEKGELLNPTGTVRSNPNTDSAAALLICLPEVAPHPVYYPALEKILELGRHSECVHVTEEEQLQLREILERRGSGELYEHEKDLVWKLRHEVQEHFPEALARLLLVTKWNKHEDVAQMLYLLCSWPELPVLSALELLDFSFPDCHVGSFAIKSLRKLTDDELFQYLLQLVQVLKYESYLDCELTKFLLDRALANRKIGHFLFWHLRSEMHVPSVALRFGLILEAYCRGSTHHMKVLMKQGEALSKLKALNDFVKLSSQKTPKPQTKELMHLCMRQEAYLEALSHLQSPLDPSTLLAEVCVEQCTFMDSKMKPLWIMYSNEEAGSGGSVGIIFKNGDDLRQDMLTLQMIQLMDVLWKQEGLDLRMTPYGCLPTGDRTGLIEVVLRSDTIANIQLNKSNMAATAAFNKDALLNWLKSKNPGEALDRAIEEFTLSCAGYCVATYVLGIGDRHSDNIMIRESGQLFHIDFGHFLGNFKTKFGINRERVPFILTYDFVHVIQQGKTNNSEKFERFRGYCERAYTILRRHGLLFLHLFALMRAAGLPELSCSKDIQYLKDSLALGKTEEEALKHFRVKFNEALRESWKTKVNWLAHNVSKDNRQ

Variants of: B1
Conditions: with p85a_human PIK3R1, P27986
Chain of p85a_human PIK3R1, P27986 (P27986 whole entry): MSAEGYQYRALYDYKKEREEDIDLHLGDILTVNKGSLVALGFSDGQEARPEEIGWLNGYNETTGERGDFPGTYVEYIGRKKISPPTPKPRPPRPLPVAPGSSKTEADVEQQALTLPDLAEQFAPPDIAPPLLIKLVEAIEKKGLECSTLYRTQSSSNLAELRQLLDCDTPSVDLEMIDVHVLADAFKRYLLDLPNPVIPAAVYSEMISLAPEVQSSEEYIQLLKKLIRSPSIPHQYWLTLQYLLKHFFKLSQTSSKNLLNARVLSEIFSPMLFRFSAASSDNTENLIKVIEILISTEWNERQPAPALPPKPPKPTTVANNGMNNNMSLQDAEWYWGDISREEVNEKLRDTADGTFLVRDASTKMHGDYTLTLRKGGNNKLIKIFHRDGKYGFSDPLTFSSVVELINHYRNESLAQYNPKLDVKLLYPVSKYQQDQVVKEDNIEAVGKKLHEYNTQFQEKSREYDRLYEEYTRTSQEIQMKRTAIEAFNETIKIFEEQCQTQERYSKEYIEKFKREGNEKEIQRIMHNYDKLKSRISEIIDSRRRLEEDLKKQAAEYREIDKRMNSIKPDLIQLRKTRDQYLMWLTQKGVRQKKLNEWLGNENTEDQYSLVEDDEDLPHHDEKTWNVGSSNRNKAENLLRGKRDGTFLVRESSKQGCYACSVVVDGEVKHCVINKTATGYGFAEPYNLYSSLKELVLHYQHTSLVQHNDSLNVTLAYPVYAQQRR

Variant | effect of a mutation on the interaction
E1021K | with no effect
E525K | with no effect
